T1: E. coli RAGE Construct #2, 6His-(Thr)-[RAGE (24-129)] (human)
T1 construct: Expressed in E. coli with an N-terminal 6His-(Thr) tag, which is part of the entry; also called RAGE protein #2
T1 chain: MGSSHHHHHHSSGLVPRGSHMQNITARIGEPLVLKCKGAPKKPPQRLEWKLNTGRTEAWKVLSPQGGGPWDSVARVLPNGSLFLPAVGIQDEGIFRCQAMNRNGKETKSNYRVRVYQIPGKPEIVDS

T2: E. coli RAGE Construct #7, 6His-(Thr)-[RAGE (235-336)] (human)
T2 construct: Expressed in E. coli with an N-terminal 6His-(Thr) tag, which is part of the entry; also called RAGE protein #7
T2 chain: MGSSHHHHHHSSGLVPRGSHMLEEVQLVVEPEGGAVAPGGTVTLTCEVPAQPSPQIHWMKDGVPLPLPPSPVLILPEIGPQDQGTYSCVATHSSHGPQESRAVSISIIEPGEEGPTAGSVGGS

T3: E. coli RAGE Construct #5, 6His-(Thr)-[RAGE (130-234)] (human)
T3 construct: Expressed in E. coli with an N-terminal 6His-(Thr) tag, which is part of the entry; also called RAGE protein #5
T3 chain: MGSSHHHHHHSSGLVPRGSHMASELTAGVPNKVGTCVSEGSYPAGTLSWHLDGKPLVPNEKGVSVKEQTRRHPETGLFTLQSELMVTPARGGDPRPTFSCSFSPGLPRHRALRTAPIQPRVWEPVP

B1: anti-human RAGE monoclonal antibody 7F9 (murine, hybridoma-derived) (antibody, V domains shown)
VH: EEKLEESGGGLVQLGGSMKISCVASGFTLSNYWMDWVRQSPEKGLEWIAEIRLKSNYYSTHYAESVKGRFSISRDDSKGSVSLQMDNLTAEDTGIYFCARNAYWYFDVWGTGTTVTVSS
VL: DIVMTQSHKFMSTSVGDRVSATCKASQDVGTSVAWYQQKLGQSPKLLIYWTSTRHTGVPDRFTGSGSGTDFTLTISNVQSEDLADYFCQQYNNYPLTFGDGTKLELKR
notes: also called mAb7F9; MAb 7F9
B2: anti-human RAGE monoclonal antibody 11E6 (murine, hybridoma-derived) (antibody, V domains shown)
VH: QIQLVQSGPELKKPGETVKISCKASGYTFTNFGMNWVKQAPGKGLKWMGYINTNTGESIYSEEFKGRFAFSLETSASTAYLQINNLKNEDTATYFCARSRMVTAYGMDYWGQGTSVTVSS
VL: DIVMTQSQKFMSTSVGDRVSITCKASQNVGTAVAWYQQRPGQSPKLLIFSASNRYTGVPDRFTGSGSGTDFTLTLSNMQPEDLADYFCQQYSSYPLTFGVGTKLELKR
notes: also called mAb11E6; ML37-11E6
B3: anti-human RAGE monoclonal antibody 4E5 (murine, hybridoma-derived) (antibody, V domains shown)
VH: QVQLQQSGAELVRPGTSVKVSCKASGYAFNNYLIEWIKQRPGQGLEWIGVINPGSGGTNHNEKFKVKATLTADKSSSTAYIQLSSLTSDDSAVYFCARSAGTARARFAYWGQGTLVTVSA
VL: DIQMTQSPSSLSASLGERVSLTCRASQDIGSSLNWLQQEPDGTIKRLIYATSSLDSGVPKRFSGSRSGSDYSLTISSLESEDFVDYYCLQYASFPFTFGSGTKLEIKR
notes: also called mAb4E5; ML37-4E5

How the values were obtained:
[1] = target: T1, E. coli RAGE Construct #2, …; assay: ELISA: RAGE 24-129 (E. coli, D#1474) coated, mAb titrated, anti-mouse HRP conjugate, TMB
Procedure: (§1) Antigens (purified construct #1-7 proteins) were diluted into Coating Buffer [100 mM NaHCO₃, pH 8.2] to 1 μg/ml, and 100 μl of the resulting solution was then aliquoted into a 96-well Nunc Immuno Plate (Maxi-Sorb Surface, flat bottom, catalog #439454). The plate was sealed with sealing film and incubated at 4° C. overnight. The next day, the plate wells were each washed 3 times with 150 μL PBST buffer [Sigma PBS+0.05% Tween 20]. Then 300 ul of blocking solution (3% NFDM in PBST) was added to each well. The plate was incubated for 2 hours at room temperature and shaking at 100 rpm. After the incubation step, each well was again washed three times with 150 uL PBST. […] The plate was then sealed with sealing film and incubated for 2 hours at room temperature and shaking at 100 rpm. Next the antibody solution was drained out of the wells, and each well then washed three times with 200 ul PBST. To each well then 200 ul of a 1:5000 dilution (in PBST/1% NFDM) of conjugated secondary antibody [Donkey anti-mouse HRPO conjugate, Jackson Immuno Research, Catalog #715-035-150] was added. The plate was covered and allowed to incubate for 1 hour at room temperature while shaking at 100 rpm. Following this incubation, the solution was removed from the wells and each well was washed three times with 200 ul PBST. To each well 100 μL of HRPO substrate [3,3′,5′,5′-Tetramethylbenzidine Liquid Substrate (TMB), Supersensitive for ELISA, Sigma Catalog #T4444] solution was added and the plate incubated at room temperature for 10 minutes. Finally, 50 μL of 2M H₂SO₄ was added to each well to stop the reaction and the A₅₄₀ₙₘ of each well was measured using a microtiter plate reader.

[2] = target: T2, E. coli RAGE Construct #7, …; assay: ELISA: RAGE 235-336 (E. coli, D#1479) coated, mAb titrated, anti-mouse HRP conjugate, TMB
Procedure: as §1

[3] = target: T4, hRAGE (1-331) / human sRAGE 1-331, V#400 (human, UniProt Q15109 23-331); assay: Biacore 2000 SPR, mAb captured via anti-mouse Fc, RAGE injected 20-0.31 nM, HBS-EP+ buffer, 1:1 fit
T4 construct: also called sRAGE [RAGE (1-331)]; RAGE (antigen of the Biacore runs)
T4 sequence (Q15109 23-331): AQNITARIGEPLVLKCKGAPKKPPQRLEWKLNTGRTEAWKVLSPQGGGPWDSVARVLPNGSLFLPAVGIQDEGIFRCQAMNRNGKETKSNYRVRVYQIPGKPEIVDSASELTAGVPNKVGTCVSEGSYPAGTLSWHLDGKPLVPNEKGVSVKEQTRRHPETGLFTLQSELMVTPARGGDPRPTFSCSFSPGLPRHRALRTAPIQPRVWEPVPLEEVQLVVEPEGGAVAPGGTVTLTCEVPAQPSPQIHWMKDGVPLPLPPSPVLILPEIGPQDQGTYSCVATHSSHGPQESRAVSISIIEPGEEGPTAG
Procedure: The assay format for mAb affinity analysis was Fc-based capture via immobilized anti-Fc antibodies. A standard amine coupling protocol was employed to immobilize Fc-specific IgG via primary amines to the carboxy-methyl (CM) dextran surface of CM5 sensorchips (Biacore). […] Briefly, the CM-dextran surfaces were activated by freshly prepared 1:1 50 mM N-hydroxysuccinimide (NHS):200 mM 3-(N,N-dimethylamino) propyl-N-ethylcarbodiimide (EDC). Then the anti-Fc IgG capture reagent (20 ug/ml in 10 mM sodium acetate, pH4.5) was applied to the surface followed by deactivation of the surface and blocking of the residual reactive sites with 1M ethanolamine (pH 8.5).
Each experimental cycle consisted of the following steps: 1) anti-RAGE mAbs were captured in flowcells 2, 3 or 4 to a level of 50-200 RU (depending on the antigen). All measurements were referenced against flowcell 1 which had no captured anti-RAGE mAb. […] 3) the anti-Fc capture surface was regenerated with low pH glycine.
Briefly, the data were double referenced by first, subtracting the signal from the reference cell and second, by subtracting the signal from buffer-only injections.

[4] = target: T3, E. coli RAGE Construct #5, …; assay: ELISA: RAGE 130-234 (E. coli, D#1477) coated, mAb titrated, anti-mouse HRP conjugate, TMB
Procedure: as §1

[5] = target: T5, E. coli RAGE Construct #4, 6His-(Thr)-[RAGE (24-336)] (human, UniProt Q15109 24-336); assay: ELISA: RAGE 24-336 (E. coli, D#1476) coated, mAb titrated, anti-mouse HRP conjugate, TMB
T5 construct: Expressed in E. coli with an N-terminal 6His-(Thr) tag, which is part of the entry; also called RAGE protein #4
Procedure: as §1

[6] = target: T6, E. coli RAGE Construct #3, 6His-(Thr)-[RAGE (24-234)] (human, UniProt Q15109 24-234); assay: ELISA: RAGE 24-234 (E. coli, D#1475) coated, mAb titrated, anti-mouse HRP conjugate, TMB
T6 construct: Expressed in E. coli with an N-terminal 6His-(Thr) tag, which is part of the entry; also called RAGE protein #3
Procedure: as §1

| Binder | binding result [1] | binding result [2] | Kd [3] | binding result [4] | binding result [5] | binding result [6] | EC50 (read off the curve) [2] | EC50 (read off the curve) [5] |
| --- | --- | --- | --- | --- | --- | --- | --- | --- |
| B1 | no binding | no binding | 0.11 nM | no binding | no binding | no binding |  |  |
| B2 | no binding |  | 0.29 nM | no binding |  | no binding | ~0.04 nM | ~0.2 nM |
| B3 | no binding |  | 2.2 nM | no binding |  | no binding | ~0.03 nM | ~0.2 nM |

Source: patent US20170002075A1 (AbbVie / Abbott, published 2017)
